Data on 5 substances can be found in publication doi:10.1101/2025.05.01.651538.

In one data set the test system is KDM5ACAT. Put plainly: EMSA. Conditions: Nucleosome EMSA: 100 nM nucleosome, 50 mM HEPES pH 7.5, 50 mM KCl, 1 mM BME, 0.01% Tween-20, 0.01% BSA, 5% sucrose, 1 h on ice, DNA EMSA: 100 nM DNA, TE …. (A gel shift assay detects complexes by their altered migration in electrophoresis.)
Data set [1] deals with acidic patch mutant (APM) H3K4me3 147bp nucleosome (human).
Data set [2] has the same target. Briefly: native gel or EMSA; direct binding: 100 nM nucleosome, varying concentrations of KDM5A; 50 mM HEPES pH 7.5, 50 mM KCl, 1 mM BME, 0.01% Tween-20, 0.01% BSA, 5% sucrose; 1 hour on ice; 7.5% gel at 4°C, SYBR gold; fit with Hill slope.
Data set [3] deals with acidic patch mutant (APM) unmodified 147bp nucleosome (H2A E61A, E64S, N68A, D72S, N89A, D90A, E91S) (human). Described as above.
The target in data set [4] is acidic patch mutant (APM) unmodified 147bp nucleosome (H2A E61A, E64S, N68A, D72S, N89A, D90A, E91S). Put plainly: EMSA. Conditions: 0-32 µM KDM5A^MutR titrated against APM 147bp nucleosome.

Sequence of KDM5A^CAT (KDM5A 1–801, minimal catalytically active construct) (P29375 1-801): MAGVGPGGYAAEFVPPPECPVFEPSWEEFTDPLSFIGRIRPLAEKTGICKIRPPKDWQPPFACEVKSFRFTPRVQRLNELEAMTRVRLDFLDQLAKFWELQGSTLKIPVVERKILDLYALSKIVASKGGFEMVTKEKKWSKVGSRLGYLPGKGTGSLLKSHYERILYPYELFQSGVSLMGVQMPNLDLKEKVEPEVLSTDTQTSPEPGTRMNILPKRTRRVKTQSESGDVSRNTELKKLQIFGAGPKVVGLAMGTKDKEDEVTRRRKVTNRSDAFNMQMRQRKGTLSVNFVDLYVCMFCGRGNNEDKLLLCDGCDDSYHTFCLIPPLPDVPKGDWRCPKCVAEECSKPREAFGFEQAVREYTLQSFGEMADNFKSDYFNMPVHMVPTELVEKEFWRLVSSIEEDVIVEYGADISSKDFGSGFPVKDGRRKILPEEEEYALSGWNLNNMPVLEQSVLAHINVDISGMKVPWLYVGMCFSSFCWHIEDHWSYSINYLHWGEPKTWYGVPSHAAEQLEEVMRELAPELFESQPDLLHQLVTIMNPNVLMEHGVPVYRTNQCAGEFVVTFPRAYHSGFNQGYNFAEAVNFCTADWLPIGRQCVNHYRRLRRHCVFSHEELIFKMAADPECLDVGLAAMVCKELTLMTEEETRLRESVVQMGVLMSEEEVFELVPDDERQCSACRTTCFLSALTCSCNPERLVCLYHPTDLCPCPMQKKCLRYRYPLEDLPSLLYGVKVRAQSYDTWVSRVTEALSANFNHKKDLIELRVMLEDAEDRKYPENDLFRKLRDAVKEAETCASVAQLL

In turn, 147bp APM nucleosome, unmodified returned a binding signal in the data set on KDM5ACAT (H2A E61A;E64S;N68A;D72S;N89A;D90A;E91S, scale: fold loss in affinity vs wild-type 147bp nucleosome) of 3.
In the data set on KDM5ACAT (scale: fold higher affinity than APM 147bp nucleosome), 147bp nucleosome, wild-type unmodified had a binding signal of 3.
As for H3K4me3 APM nucleosome, the binding signal in the data set on KDM5ACAT (H3K4me3, H2A E61A;E64S;N68A;D72S;N89A;D90A;E91S, scale: fold lower affinity vs wild-type H3K4me3 nucleosome) came out at 2.
On to “KDM5A^CAT (KDM5A 1–801, minimal catalytically active construct) (from UniProt P29375 1-801) (domain or fragment)”, for which, in data set [1], the fold decrease in demethylation of H3K4me3 on APM 147bp nucleosomes relative to wild-type nucleosomes, western blot, single turnover (5 μM KDM5A enzyme, 50 nM substrate) turned out to be 9 fold. The substance further registered a fold lower affinity relative to wild-type H3K4me3 nucleosome in data set [2] of 2 fold. Further, the fold loss in affinity relative to wild-type 147bp nucleosome in data set [3] was 3 fold.
Consider “KDM5A^CAT (KDM5A 1–801, minimal catalytically active construct) (from UniProt P29375) R210A; R217A; R219A; R220A; R232A; R264A; R265A; R266A; R271A; R280A; R282A”, for which, in data set [4], the Kd (usually the concentration at which binding is half-saturated) stood at 14 µM.
